Positions of bridges follow the written chain, without caps; N, C: chain ends. No end group written: not given here.
Tests used:
[1] = biological target: T1, recombinant human IGFBP-1 (human, UniProt P08833 26-259); assay: phage ELISA titration on IGFBP-1 plate with IGF-I (FIG. 28)
T1 construct: Biotinylated in some assays; also called rhIGFBP-1
T1 sequence (looked up): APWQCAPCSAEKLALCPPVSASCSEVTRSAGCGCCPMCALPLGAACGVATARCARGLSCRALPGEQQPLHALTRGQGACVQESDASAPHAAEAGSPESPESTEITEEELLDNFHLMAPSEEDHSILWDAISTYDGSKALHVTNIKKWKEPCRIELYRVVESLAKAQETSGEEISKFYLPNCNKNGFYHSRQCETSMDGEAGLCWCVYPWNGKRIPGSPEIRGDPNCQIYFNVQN
Description: (§1) The plates were then washed ten times, as above, and a solution of rabbit anti-phage antibody mixed with a goat-anti-rabbit conjugate of horse radish peroxidase was added. After an incubation of 1 hour at room temperature, the plates were developed with a chromogenic substrate, o-phenylenediamine (Sigma). The reaction was stopped with addition of ½ volume of 2.5 M H_2SO_4. Optical density at 490 nm was measured on a spectrophotometric plate reader.

IGFBP-1 [2] = biological target: T2, IGFBP-1 (human, UniProt P08833 26-259); assay: BIAcore competition (starred): peptide inhibits IGFBP-1 binding to IGF-I; ratio to bp1-01 (wt)
T2 construct: Biotinylated in the ELISA assays; also called rhIGFBP-1
T2 sequence (looked up): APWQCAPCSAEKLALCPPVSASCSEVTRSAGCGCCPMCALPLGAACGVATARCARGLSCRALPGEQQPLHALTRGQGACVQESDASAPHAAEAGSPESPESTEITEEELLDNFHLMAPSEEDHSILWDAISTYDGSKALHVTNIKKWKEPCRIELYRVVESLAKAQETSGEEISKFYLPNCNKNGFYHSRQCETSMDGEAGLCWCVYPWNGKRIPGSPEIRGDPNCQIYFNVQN

IGFBP-1 [3] = biological target: T2, IGFBP-1; assay: BIAcore competition: peptide inhibits IGFBP-1 binding to IGF-I; ratio against bp1-16
IGFBP-1 [4] = biological target: T2, IGFBP-1; assay: BIAcore competition: peptide inhibits IGFBP-1 binding to IGF-I; ratio against bp1-14
[5] = biological target: T3, recombinant human IGFBP-3 (human, UniProt P17936 28-291); assay: phage ELISA on IGFBP-3 plate, 50-fold phage dilution, with/without 100 nM IGF-I as competitor (FIG. 29)
T3 construct: also called rhIGFBP-3
T3 sequence (P17936 28-291 limits assumed): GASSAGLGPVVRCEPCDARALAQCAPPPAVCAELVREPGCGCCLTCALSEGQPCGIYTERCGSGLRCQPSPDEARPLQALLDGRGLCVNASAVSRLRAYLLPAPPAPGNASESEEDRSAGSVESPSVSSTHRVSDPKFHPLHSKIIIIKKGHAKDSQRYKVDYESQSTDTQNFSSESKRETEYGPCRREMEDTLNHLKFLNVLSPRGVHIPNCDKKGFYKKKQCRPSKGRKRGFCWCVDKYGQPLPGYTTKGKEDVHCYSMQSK
Description: as §1
In each case, the phagemid clone was grown from a single colony overnight at 37° C. in a culture volume of 5 ml. The phage particles were precipitated and resuspended in 0.5 ml of PBS buffer.

IGFBP-1 [6] = biological target: T2, IGFBP-1; assay: ELISA plate assay: peptide inhibits IGFBP-1 binding to IGF-I; ratio to bp1-01 (wt)
IGFBP-3 [7] = biological target: T4, IGFBP-3 (human, UniProt P17936 28-291); assay: BIAcore competition: peptide inhibits IGFBP-3 binding to IGF-I; ratio to bp3-01-ox
T4 construct: also called rhIGFBP-3
T4 sequence (P17936 28-291 limits assumed): as above

IGFBP-3 [8] = biological target: T4, IGFBP-3; assay: BIAcore competition: peptide inhibits IGFBP-3 binding to immobilized IGF-I
[9] = biological target: T1, recombinant human IGFBP-1; assay: ELISA: peptide dilutions with 20 nM biotinylated IGFBP-1 on IGF-I coated plate
From the text: The peptide/IGFBP mix was then removed and the plate was washed ten times with PBS buffer containing 0.05% TWEEN-20™ surfactant.

[10] = biological target: T1, recombinant human IGFBP-1; assay: cell-based or functional assay
IGFBP-1 [11] = biological target: T2, IGFBP-1; assay: ELISA competition: peptide inhibits IGFBP-1 binding to IGF-I; ratio to bp1-01 (wt)
[12] = biological target: T3, recombinant human IGFBP-3; assay: cell-based or functional assay

B1: peptide-phage clone HL-1 (g8 display) (peptide, not shown: large carriers)
chain: SEVGCRAGPLQWLCEKYF
modifications: not fully specified (C-terminus, bridges); cysteine pairing not given here; also: polyvalent display on phage particle
notes: Tested as a whole phage particle with polyvalent display; also called g8-phage peptide bp1-01
binding result [1]: binds

B2: bp1-12 (peptide)
peptide: CKEGPLQWLCEKYF
notes: g8 bp1-01 selectant
IC50 (mut)/IC50 (wt) (IGFBP-1 [2]): 2.9 ratio

B3: bp1-13 (peptide)
peptide: CKEGPLLWLCEKYF
notes: g8 bp1-01 selectant
IC50 (mut)/IC50 (wt) (IGFBP-1 [2]): 2.5 ratio

B4: bp1-21B (peptide)
peptide: CRAGPLQWLCEKYFSTY-NH2
modifications: disulfide 1-10 (inferred)
notes: g3 bp1-01 selectant
IC50 (116)/IC50 (mut) (IGFBP-1 [3]): 3.1 ratio | IC50 (114)/IC50 (mut) (IGFBP-1 [4]): 0.67 ratio

B5: peptide-phage clone 4D3.8 (g8 display) (peptide, not shown: large carriers)
chain: SEEVCWPVAEWYLCNILGP
modifications: not fully specified (C-terminus, bridges); cysteine pairing not given here; also: polyvalent display on phage particle
notes: Tested as a whole phage particle with polyvalent display
percent inhibition of phage binding by IGF-I [5]: > 40%

B6: bp1-21A (peptide)
peptide: SEVGCRAGPLQWLCEKYFSTY-NH2
modifications: disulfide 5-14 (inferred)
notes: g3 bp1-01 selectant
IC50 (116)/IC50 (mut) (IGFBP-1 [3]): 15 ratio | IC50 (114)/IC50 (mut) (IGFBP-1 [4]): 3.2 ratio

B7: bp1027 (peptide)
peptide: CKAGPLLWLCERFF
notes: g8 bp1-01 selectant
IC50 (mut)/IC50 (wt) (IGFBP-1 [6]): 8.8 ratio

B8: bp1030 (peptide)
peptide: CKEGPLLWLCERFF
notes: g8 bp1-01 selectant
IC50 (mut)/IC50 (wt) (IGFBP-1 [6]): 4.3 ratio

B9: 4d3.3 (peptide)
peptide: ASEEVCWPVAEWYLCNMWGR
IC50 (mut)/IC50 (wt) (IGFBP-3 [7]): 2.8 ratio | IC50 (IGFBP-3 [8]): 5.6 µM

B10: bp3-27 (peptide)
peptide: EVCWPVAEWYLCN
notes: bp3-01-ox variant
IC50 (mut)/IC50 (wt) (IGFBP-3 [7]): 1.4 ratio | IC50 (IGFBP-3 [8]): 2.8 µM

B11: bp3-41 (peptide)
peptide: GPETCWPVAEWYLCN
notes: bp3-01-ox variant
IC50 (mut)/IC50 (wt) (IGFBP-3 [7]): 2 ratio | IC50 (IGFBP-3 [8]): 4 µM

B12: bp1-02 (peptide)
peptide: SEVGCRAGPLQWLCEKYFG-NH2
modifications: disulfide 5-14; N-terminus assumed
SMILES: CC(C)C[C@@H]1NC(=O)[C@H](Cc2c[nH]c3ccccc23)NC(=O)[C@H](CCC(N)=O)NC(=O)[C@H](CC(C)C)NC(=O)[C@@H]2CCCN2C(=O)CNC(=O)[C@H](C)NC(=O)[C@H](CCCNC(=N)N)NC(=O)[C@@H](NC(=O)CNC(=O)[C@@H](NC(=O)[C@H](CCC(=O)O)NC(=O)[C@@H](N)CO)C(C)C)CSSC[C@@H](C(=O)N[C@@H](CCC(=O)O)C(=O)N[C@@H](CCCCN)C(=O)N[C@@H](Cc2ccc(O)cc2)C(=O)N[C@@H](Cc2ccccc2)C(=O)NCC(N)=O)NC1=O
notes: 19-mer variant of bp1-01; also called bp1-02 (bp3)
IC50 [9]: 0.05 µM | IC50, KIRA assay (peptide plus IGF-I plus IGFBP-1) [10]: 0.187 µM

B13: bp1-18 (peptide)
peptide: CRAGPLQWLCEKAA
IC50 (mut)/IC50 (wt) (IGFBP-1 [11]): 148 ratio

B14: bp3-15 (peptide)
peptide: SEEVCWPVAEWYLCN
notes: also called BP15
IC50 (mut)/IC50 (wt) (IGFBP-3 [7]): 0.36 ratio | IC50 (IGFBP-3 [8]): 0.72 µM

B15: bp1-02 (peptide)
peptide: SEVGCRAGPLQWLCEKYFG-NH2
modifications: disulfide 5-14; N-terminus assumed
SMILES: CC(C)C[C@@H]1NC(=O)[C@H](Cc2c[nH]c3ccccc23)NC(=O)[C@H](CCC(N)=O)NC(=O)[C@H](CC(C)C)NC(=O)[C@@H]2CCCN2C(=O)CNC(=O)[C@H](C)NC(=O)[C@H](CCCNC(=N)N)NC(=O)[C@@H](NC(=O)CNC(=O)[C@@H](NC(=O)[C@H](CCC(=O)O)NC(=O)[C@@H](N)CO)C(C)C)CSSC[C@@H](C(=O)N[C@@H](CCC(=O)O)C(=O)N[C@@H](CCCCN)C(=O)N[C@@H](Cc2ccc(O)cc2)C(=O)N[C@@H](Cc2ccccc2)C(=O)NCC(N)=O)NC1=O
notes: 19-mer variant of bp1-01
IC50 (mut)/IC50 (wt) (IGFBP-1 [6]): 0.37 ratio

B16: bp3-25 (SEQ ID NO:106) (peptide)
peptide: CWPVAEWYLCN
IC50 (mut)/IC50 (wt) (IGFBP-3 [7]): 23 ratio | IC50 (IGFBP-3 [8]): 46 µM

B17: bp1-20 (peptide)
peptide: EARVCRAGPLQWLCEKYF-NH2
modifications: disulfide 5-14 (inferred)
notes: g3 bp1-01 selectant
IC50 (116)/IC50 (mut) (IGFBP-1 [3]): 12 ratio | IC50 (114)/IC50 (mut) (IGFBP-1 [4]): 2.6 ratio

B18: peptide-phage clone 4D3.9 (g8 display) (peptide, not shown: large carriers)
chain: ETVANCDCYMDLCLCYGSDR
modifications: cysteine pairing not given here; also: C-terminal fusion to linker and M13 g8p, phage-displayed
notes: as for B5
percent inhibition of phage binding by IGF-I [5]: > 40%

B19: peptide-phage clone 4C3.2 (g8 display) (peptide, not shown: large carriers)
chain: ELDGWVCIKVGEQNLCYLAE
modifications: not fully specified (C-terminus, bridges); cysteine pairing not given here; also: polyvalent display on phage particle
notes: as for B5
percent inhibition of phage binding by IGF-I [5]: > 40%

B20: bp1-01 (peptide)
peptide: CRAGPLQWLCEKYFG-NH2
modifications: disulfide 1-10; N-terminus assumed
SMILES: CC(C)C[C@@H]1NC(=O)[C@H](Cc2c[nH]c3ccccc23)NC(=O)[C@H](CCC(N)=O)NC(=O)[C@H](CC(C)C)NC(=O)[C@@H]2CCCN2C(=O)CNC(=O)[C@H](C)NC(=O)[C@H](CCCNC(=N)N)NC(=O)[C@@H](N)CSSC[C@@H](C(=O)N[C@@H](CCC(=O)O)C(=O)N[C@@H](CCCCN)C(=O)N[C@@H](Cc2ccc(O)cc2)C(=O)N[C@@H](Cc2ccccc2)C(=O)NCC(N)=O)NC1=O
notes: also called bp1-01 (bp3)
IC50 [9]: 0.18 µM | IC50, KIRA assay (peptide plus IGF-I plus IGFBP-1) [10]: 0.397 µM

B21: peptide-phage clone 4D3.12 (g8 display) (peptide, not shown: large carriers)
chain: AEWAECWIAGDQLLCVGKDN
modifications: not fully specified (C-terminus, bridges); cysteine pairing not given here; also: polyvalent display on phage particle
notes: as for B5
percent inhibition of phage binding by IGF-I [5]: > 40%

B22: bp1-10 (peptide)
peptide: CRKGPLQWLCELYF
notes: g8 bp1-01 selectant
IC50 (mut)/IC50 (wt) (IGFBP-1 [2]): 1.1 ratio

B23: bp1-11 (peptide)
peptide: CRKGPLQWLCEKYF
notes: g8 bp1-01 selectant
IC50 (mut)/IC50 (wt) (IGFBP-1 [2]): 1.9 ratio

B24: bp1029 (peptide)
peptide: CREGPLQWLCERFF
notes: g8 bp1-01 selectant
IC50 (mut)/IC50 (wt) (IGFBP-1 [6]): 1.7 ratio

B25: bp67 (peptide)
peptide: CRAGPLQWLCERYF
notes: g8 bp1-01 selectant
IC50 (mut)/IC50 (wt) (IGFBP-1 [6]): 0.34 ratio

B26: bp1-15 (peptide)
peptide: CAAGPLQWLCEKYF
notes: g8 bp1-01 selectant
IC50 (mut)/IC50 (wt) (IGFBP-1 [6]): 0.68 ratio

B27: bp1028 (peptide)
peptide: CRAGPLQWLCERFF
notes: g8 bp1-01 selectant
IC50 (mut)/IC50 (wt) (IGFBP-1 [6]): 4.6 ratio

B28: bp68 (peptide)
peptide: CRAGPLQWLCEKFF
notes: g8 bp1-01 selectant
IC50 (mut)/IC50 (wt) (IGFBP-1 [6]): 0.39 ratio

B29: BP15 (peptide)
peptide: SEEVCWPVAEWYLCN
modifications: disulfide 5-14
IC50, KIRA assay (peptide with IGFBP-3:IGF-1 at a 3:1 ratio) [12]: 95 µM

B30: bp3-30 (peptide)
peptide: ASEEVCWPVAEWYLCN
notes: bp3-01-ox variant
IC50 (mut)/IC50 (wt) (IGFBP-3 [7]): 2.8 ratio | IC50 (IGFBP-3 [8]): 5.6 µM

B31: bp3-28 (peptide)
peptide: EEVCWPVAEWYLCN
notes: bp3-01-ox variant
IC50 (mut)/IC50 (wt) (IGFBP-3 [7]): 2.7 ratio | IC50 (IGFBP-3 [8]): 5.4 µM

Reference: US6949349
